14 molecules from PMC10397247 can be followed below.

Where two headings read alike, the source gives them in different places.

The target in test [1] is T1, APC9319-AA.
T1 chain: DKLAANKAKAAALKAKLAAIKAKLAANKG
The test is described as follows: two-hybrid library CCmax.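 Note: natural log of median RNA to DNA barcode read ratio; higher means stronger binding.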

Test [2] addresses T2, 4H953-bH.
T2 chain: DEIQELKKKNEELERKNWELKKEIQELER
In words: two-hybrid library CCNG1.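 Note: natural log of median RNA to DNA barcode read ratio; higher means stronger binding.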

Test [3] has as its target T3, 4H967-bH.
T3 chain: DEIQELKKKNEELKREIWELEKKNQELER
In words: two-hybrid library CCNG1.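 Note: natural log of median RNA to DNA barcode read ratio; higher means stronger binding.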

Test [4] deals with T4, 4H968-bH.
T4 chain: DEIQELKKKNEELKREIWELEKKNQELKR
The test is described as follows: two-hybrid library CCNG1.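 Note: natural log of median RNA to DNA barcode read ratio; higher means stronger binding.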

Test [5] addresses T5, 4H3777-AA.
T5 chain: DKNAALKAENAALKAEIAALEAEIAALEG
In words: two-hybrid library CCmax.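 Note: natural log of median RNA to DNA barcode read ratio; higher means stronger binding.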

For test [6], the target named is T6, 4H380-AA.
T6 chain: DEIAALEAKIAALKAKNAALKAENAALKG
In words: two-hybrid library CCmax.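 Note: natural log of median RNA to DNA barcode read ratio; higher means stronger binding.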

Test [7] has as its target T7, 4H3915-AA.
T7 chain: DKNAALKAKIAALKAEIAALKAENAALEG
The test is described as follows: two-hybrid library CCmax. Conditions: mean of both orientations.

In test [8] the target is T8, 4H3974-AA.
T8 chain: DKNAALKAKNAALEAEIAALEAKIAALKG
In words: two-hybrid library CCmax. The conditions noted are these: mean of both orientations.

The target of test [9] is T9, 4H432-AA.
T9 chain: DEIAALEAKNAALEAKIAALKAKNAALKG
In words: two-hybrid library CCmax. The conditions noted are these: mean of both orientations.

Test [10] addresses T10, 4H446-AA.
T10 chain: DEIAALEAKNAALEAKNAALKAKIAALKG
In words: two-hybrid library CCmax. The conditions noted are these: mean of both orientations.

For test [11], the target named is T11, 4H63-AA.
T11 chain: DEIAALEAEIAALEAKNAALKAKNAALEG
The test is described as follows: two-hybrid library CCmax. Conditions: mean of both orientations.

The target of test [12] is T12, 4H3969-AA.
T12 chain: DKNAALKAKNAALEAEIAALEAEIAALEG
In words: two-hybrid library CCmax.

Test [13] concerns the target T13, 4H464-AA.
T13 chain: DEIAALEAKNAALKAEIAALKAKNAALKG
In words: two-hybrid library CCmax. Conditions: mean of both orientations.

Test [14] addresses T14, 4H483-AA.
T14 chain: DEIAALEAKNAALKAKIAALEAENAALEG
In words: two-hybrid library CCmax. The conditions noted are these: mean of both orientations.

Test [15] deals with T15, APC8401-AA.
T15 chain: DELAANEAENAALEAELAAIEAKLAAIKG
In words: two-hybrid library CCmax.

Test [16] concerns the target T16, APC8516-AA.
T16 chain: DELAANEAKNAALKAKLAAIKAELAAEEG
The test is described as follows: two-hybrid library CCmax.

The target of test [17] is T17, APC9141-AA.
T17 chain: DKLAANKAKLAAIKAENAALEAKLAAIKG
In words: two-hybrid library CCmax. Conditions: mean of both orientations.

Test [18] concerns the target T18, APC9182-AA.
T18 chain: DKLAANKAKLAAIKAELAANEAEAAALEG
In words: two-hybrid library CCmax. Conditions: mean of both orientations.

In test [19] the target is T19, APC9291-AA.
T19 chain: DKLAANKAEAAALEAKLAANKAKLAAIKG
In words: two-hybrid library CCmax. The conditions noted are these: mean of both orientations.

Test [20] has as its target T20, APC9806-AA.
T20 chain: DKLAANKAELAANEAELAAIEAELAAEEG
The test is described as follows: two-hybrid library CCmax. Conditions: mean of both orientations.

Test [21] addresses T21, 4H3939-AA.
T21 chain: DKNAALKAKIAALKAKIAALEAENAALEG
The test is described as follows: two-hybrid library CCmax.

Test [22] deals with T22, 4H428-AA.
T22 chain: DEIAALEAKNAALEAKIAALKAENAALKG
In words: two-hybrid library CCmax. The conditions noted are these: mean of both orientations.

Test [23] has as its target T23, 4H478-AA.
T23 chain: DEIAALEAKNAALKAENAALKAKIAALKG
In words: two-hybrid library CCmax. The conditions noted are these: mean of both orientations.

For test [24], the target named is T24, 4H497-AA.
T24 chain: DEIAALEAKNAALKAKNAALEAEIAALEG
The test is described as follows: two-hybrid library CCmax. Conditions: mean of both orientations.

The target in test [25] is T25, 4H656-AA.
T25 chain: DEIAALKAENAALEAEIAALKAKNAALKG
In words: two-hybrid library CCmax. Conditions: mean of both orientations.

Test [26] concerns the target T26, 4H675-AA.
T26 chain: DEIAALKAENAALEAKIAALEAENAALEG
In words: two-hybrid library CCmax. The conditions noted are these: mean of both orientations.

Test [27] deals with T27, 4H971-AA.
T27 chain: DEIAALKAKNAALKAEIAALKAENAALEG
In words: two-hybrid library CCmax. The conditions noted are these: mean of both orientations.

In test [28] the target is T28, 4H3588-AA.
T28 chain: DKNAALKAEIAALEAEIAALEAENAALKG
In words: two-hybrid library CCmax.

In test [29] the target is T29, 4H3606-AA.
T29 chain: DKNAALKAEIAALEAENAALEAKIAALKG
In words: two-hybrid library CCmax. The conditions noted are these: mean of both orientations.

The target in test [30] is T30, 4H3631-AA.
T30 chain: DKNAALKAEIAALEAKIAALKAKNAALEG
The test is described as follows: two-hybrid library CCmax. Conditions: mean of both orientations.

In test [31] the target is T31, 4H3697-AA.
T31 chain: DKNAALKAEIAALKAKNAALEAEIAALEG
The test is described as follows: two-hybrid library CCmax. Conditions: mean of both orientations.

The target of test [32] is T32, 4H3718-AA.
T32 chain: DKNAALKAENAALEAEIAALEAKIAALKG
In words: two-hybrid library CCmax. Conditions: mean of both orientations.

Test [33] deals with T33, 4H384-AA.
T33 chain: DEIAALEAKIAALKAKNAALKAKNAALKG
In words: two-hybrid library CCmax. The conditions noted are these: mean of both orientations.

Test [34] concerns the target T34, 4H3865-AA.
T34 chain: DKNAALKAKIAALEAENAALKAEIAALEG
In words: two-hybrid library CCmax. Conditions: mean of both orientations.

The target of test [35] is T35, 4H697-AA.
T35 chain: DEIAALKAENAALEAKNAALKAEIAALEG
In words: two-hybrid library CCmax. Conditions: mean of both orientations.

Test [36] addresses T36, 4H982-AA.
T36 chain: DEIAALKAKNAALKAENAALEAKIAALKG
In words: two-hybrid library CCmax. The conditions noted are these: mean of both orientations.

For test [37], the target named is T37, 4H3629-AA.
T37 chain: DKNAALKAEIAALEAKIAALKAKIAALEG
In words: two-hybrid library CCmax.

Test [38] deals with T38, 4H3782-AA.
T38 chain: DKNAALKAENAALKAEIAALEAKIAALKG
In words: two-hybrid library CCmax. Conditions: mean of both orientations.

Test [39] has as its target T39, 4H3666-AA.
T39 chain: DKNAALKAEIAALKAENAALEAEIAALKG
The test is described as follows: two-hybrid library CCmax.

For test [40], the target named is T40, 4H3709-AA.
T40 chain: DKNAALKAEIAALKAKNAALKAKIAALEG
In words: two-hybrid library CCmax. Conditions: mean of both orientations.

Test [41] has as its target T41, 4H391-AA.
T41 chain: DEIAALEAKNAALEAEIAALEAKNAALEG
The test is described as follows: two-hybrid library CCmax. The conditions noted are these: mean of both orientations.

For test [42], the target named is T42, 4H3920-AA.
T42 chain: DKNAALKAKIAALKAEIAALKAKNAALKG
The test is described as follows: two-hybrid library CCmax. Conditions: mean of both orientations.

In test [43] the target is T43, 4H56-AA.
T43 chain: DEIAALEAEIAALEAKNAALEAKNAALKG
In words: two-hybrid library CCmax.

Test [44] concerns the target T44, 4H_APH.
T44 chain: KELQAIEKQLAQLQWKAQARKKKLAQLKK
The test is described as follows: two-hybrid library CCmax.

Test [45] deals with T45, 4H_BCR.
T45 chain: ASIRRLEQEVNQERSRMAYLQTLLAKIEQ
The test is described as follows: two-hybrid library CCmax. The conditions noted are these: mean of both orientations.

Test [46] deals with 4H_GCN4. In words: two-hybrid library CCmax.
Sequence of 4H_GCN4 (chain, as listed by the source): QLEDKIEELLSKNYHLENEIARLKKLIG
For test [47], the target named is GCN2_T. The test is described as follows: two-hybrid library CCmax.
The target in test [48] is T46, 4H452-AA.
T46 chain: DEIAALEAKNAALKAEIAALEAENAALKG
The test is described as follows: two-hybrid library CCmax.

In turn, DKLAANKAKAAALKAKLAAIKAKLAANKG [APC9319-AA] yielded an interaction score in [1] of -1.58.

Regarding DEIQELKKKNEELERKNWELKKEIQELER [4H953-bH], the interaction score in test [2] was -0.129; in test [3] it was -0.919; in [4], -1.63.

For DKNAALKAENAALKAEIAALEAEIAALEG [4H3777-AA], the interaction score in [5] was -0.62; in test [6] (mean of both orientations), -1.42; in test [7], -0.495; in test [8], -0.511; in test [9], -1.01; in [10] it was -0.779. In [11], the interaction score was -1.54.

On to DKNAALKAKNAALEAEIAALEAEIAALEG [4H3969-AA], for which the interaction score in [12] was -1.61; in test [10] it was 1.05; in [13] it was -0.91; in test [14], -1.99; in [11], -1.93.

DELAANEAENAALEAELAAIEAKLAAIKG [APC8401-AA]: the interaction score in [15] is -1.51; in test [16] (mean of both orientations), -1.57; in test [17], -1.49; in test [18], -1.43; in test [19], -1.42; in test [20] it was -1.46.

Turning to DKNAALKAKIAALKAKIAALEAENAALEG [4H3939-AA], the interaction score was -1.07 in test [21]; -0.371 in [12] (mean of both orientations); -1.64 in test [22]; -0.459 in test [10]; -1.97 in [13]; -1.63 in [23]. Moreover, the interaction score in test [14] is -2.02; in [24], -1.92; in [11], 1.57; in [25], -0.924; in test [26] it was -1.53; in [27], -1.81.

Consider DKNAALKAEIAALEAEIAALEAENAALKG [4H3588-AA], for which the interaction score in test [28] was -1.05; in test [29], -1.57; in test [30] it was -0.285; in [31], -2.28; in test [32], 0.71; in test [33], 1.38. Moreover, the values for the interaction score in test [34], in test [35] and in [36] were -1.15, -1.44 and -1.37, respectively.

For the molecule DKNAALKAEIAALEAKIAALKAKIAALEG [4H3629-AA], the interaction score in test [37] is 1.82; in test [5] (mean of both orientations), -0.576; in test [38], -0.119; in [6] (mean of both orientations) it was -1.46; in test [7] it was -0.761; in test [21] (mean of both orientations) it was -0.964. Further, the interaction score in test [12] (mean of both orientations) was -1.01; in test [8], 0.236; in [9], -2.37; in [10], -1.96; in [13] it was -1.75; in test [14] it was -1.87. The molecule also displayed an interaction score in [11] of -0.266.

Turning to DEIAALEAKIAALKAKNAALKAENAALKG [4H380-AA], the interaction score in test [6] is -0.176; in [7], 0.315; in test [21] (mean of both orientations) it was 0.0894; in [12] (mean of both orientations), -1.28; in [8], -0.717; in [9] it was -1.71. Further, the interaction score in [10] is -1.43; in test [13] it was -1.6; in test [14] it was -1.15; in test [11], -0.855.

For DELAANEAKNAALKAKLAAIKAELAAEEG [APC8516-AA], the interaction score is -1.87 in [16]; -1.56 in test [17]; -1.64 in [18]; -1.91 in test [19]; -1.63 in test [20].

For the molecule DKNAALKAEIAALKAENAALEAEIAALKG [4H3666-AA], the interaction score in test [39] is 0.925; in test [40], 1.48; in test [41], -1.26; in test [42], -1.45; in test [21] (mean of both orientations) it was -1.61; in test [22] it was -1.27. The interaction score in test [23] is 0.407; in test [24], -1.84; in test [25], 0.306; in [26], -2.19; in [27], 1.3.

In turn, DEIQELKKKNEELKREIWELEKKNQELKR [4H968-bH] yielded an interaction score in test [4] of 0.196.

Regarding DEIAALEAEIAALEAKNAALEAKNAALKG [4H56-AA], the interaction score is -0.981 in [43]; -1.29 in test [44] (mean of both orientations); -1.53 in test [45]; -1.92 in [46]; -1.38 in test [47].

With DEIAALEAKNAALKAEIAALEAENAALKG [4H452-AA], the interaction score was -0.395 in test [48]; -1.4 in test [43] (mean of both orientations); -1.91 in test [44]; -1.94 in [45]; -0.935 in [46]; -0.726 in test [47].
